Measurements reported in the supplement of paper PMC12764529.
± gives the half width of the 95% confidence interval.

Test: folding stability dG unfold from trypsin proteolysis; higher = more stable
Procedure, shortened: (§1)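 K50 was inferred by Bayesian fitting of sequencing counts obtained after protease digestion of designed mini-proteins. Unfolding free energy was derived by comparison with a sequence-predicted unfolded-state K50 and a shared folded-state K50, for each protease or both combined. The mini-proteins were under 80 residues, had no cysteine, were carried in a PA-tagged cDNA display construct, and were kept only if AlphaFold2 dimer inter-PAE exceeded 15.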

In order of rising “folding stability dG unfold” value:
1. SAGGMDPDDLKGMPPEQAKDIVRDWIREYMQERNPNMPPGMKITDVPVEVRDPDNGKEIEVKVEIENYSAGG [r13_555_TrROS]  -0.936 ± 0.37 kcal/mol
2. SAGGSAGGSAGMVEVEVRKTENGNYVVTTTTVTTSPVTTPNPYTRTVTTVTTSTTVIPATSAGGSAGGSAGG [r11_403_JUSTAS]  -0.758 ± 0.3 kcal/mol
3. SAGGSAGGSAMTPPEELKEKIAAEVSPDTTVTETFPEEPLVVKITRNPSGTITVEVVSPEELSAGGSAGGSA [r18_61_JUSTAS]  -0.418 ± 0.11 kcal/mol
4. SAGGSAGGSAGIEKTKDGVYKITIYNPSTGKKTEIYVPSSAPYVAGPVVLELVKNKAIIESAGGSAGGSAGG [r11_538_TrMRF]  -0.296 ± 0.074 kcal/mol
5. SAGGSADNTDVKTEVVGFRLPGYEGLNFLINIQPKDKPKTIFASEAELPLFEEAGIPVVFTSSLPLSAGGSA [r15_783_TrMRF]  -0.15 ± 0.29 kcal/mol
6. SAGGSAGGGDAESYAKEKGFVEIKVTKLPDGSERVTAKYPDGTTADILYTPGQGTFTLLETKKESAGGSAGG [r6_906_JUSTAS]  0.154 ± 0.034 kcal/mol
7. SAGGSAGGTIWFDNPEDVERVVKDLRQEFPPDNPIDIMIWGPGSMYVIEITPDKIKDVEVYPMDSAGGSAGG [r6_289_TrROS]  0.318 ± 0.082 kcal/mol
8. SAGGSKKKEEVKEIDVVLVEVSEEEALKLAEETGKAVIVVFPDGELRIFYPDGTVETIKLPDLEELSAGGSA [r2_34_TrROS_Hall]  0.377 ± 0.062 kcal/mol
9. SAGGWYLRIEPDDGRELEIPMNDPGLPLEDLADKLMKDMPGPMKIKVEFYHPNKPVEHTIKIPLPKNSAGGS [r16_216_TrROS]  0.443 ± 0.11 kcal/mol
10. SAGGTMIELKSASGKTALLPLPPGTERVEREGDKWTIYLPPEYTLTVEITAPVPPSSLFDLKVLSRKLSAGG [r19_274_JUSTAS]  0.595 ± 0.077 kcal/mol
11. SAGMPGKVVTVTVPVPPELTRLTVTATAPDGSSSTFTLPPGVATTVTFTSPSSSDLSVTVTFPDGSTTGSAG [r5_664_JUSTAS]  0.849 ± 0.017 kcal/mol
12. SAGGSAGGSAGGSWTVTKEISREGDKVYISTVTTYVNPNGTPVTETETKEISPEEVAELESAGGSAGGSAGG [r11_690_JUSTAS]  0.964 ± 0.037 kcal/mol
13. SAGGSAGGSMTSVTTLVETETLTNGNTIVPQLVQITVTLEVPAVPPEEIKPKPAPGDRWTYYSSAGGSAGGS [r12_1031_JUSTAS]  1.01 ± 0.073 kcal/mol
14. SAGSMEELIANGGTISEERTLPGGEKVFTTTTLTYAPDGTPVINTETTVTTTPPDGTTTPSTSTSTVPLSAG [r5_24_JUSTAS]  1.04 ± 0.038 kcal/mol
15. SAGIPPDDPNDIYIVPVKITPVPDGSLQIEIIIVWPDGEVYTMEQEFDPNGNIEEMDMEPMPPEDIKESAGG [r19_285_TrROS]  1.1 ± 0.1 kcal/mol
16. SAGLEVEIVSVEYDEETNTVKVKVKVRNPETNEVTTLELTIKLPPPPPPVEKVEVKEVKDGKVTVTYEESAG [r5_150_TrROS_Hall]  1.43 ± 0.18 kcal/mol
17. SAGGSAWPAKEIAKELNPGFPVDVEPEPVPNKDGKDMVTIEARFPNGWKIQIVFRNGKPEAIQWQKSAGGSA [r15_417_TrROS]  1.47 ± 0.032 kcal/mol
18. SAGGSAGGSSPLLEAALEIAKTLPPDSEVELPILNPETGTFVRVRVVYDEETGEFKVESVEFSSAGGSAGGS [r12_186_TrMRF]  1.5 ± 0.018 kcal/mol
19. SAFKIDPNGHIRIMISQDDLKQMSIEEINNLVKELAKAFPPPMKVEIHIMPPPPKPKPPPKRDDDGKPKSAG [r14_312_TrROS]  1.54 ± 0.053 kcal/mol
20. SAGGMTITIDPTPDGVRIKIYDDGKPREIPVAPEVLELIQQNPTLEEIIRELFPPGHPIEKIEIEPWSAGGS [r16_567_TrROS]  1.57 ± 0.071 kcal/mol
21. SAGGSGMEAKLLEEALEAELKAKGYKVEVKVTVTKSFSVQEGGLPSSTTTVTIEITVRDPKTGKKVSAGGSA [r2_434_JUSTAS]  1.62 ± 0.09 kcal/mol
22. SAGGNWRIRVKIEGPDGKTVNHWFWIPNLEDLLSFIQSQPGPKIKDVEIEPPPKDKQYYIPFTMTIPPSAGG [r13_796_TrROS]  1.72 ± 0.031 kcal/mol
23. SAGGMPKDAPTTDLTITEIVTEPDPNSDTYIARVTTRLPDGTEIVYTLPIPADTTEEEVVERAKELLSSAGG [r13_578_JUSTAS]  1.78 ± 0.035 kcal/mol
24. SVTITKDGNKITVTLSVNGPFTLQVNKESSTSSFSVPADESATLTIDVPNTTYKVVVEKPGQPVSTYDLLSA [r9_411_JUSTAS]  1.8 ± 0.12 kcal/mol
25. SKKKKKLTAEEIAKKLEEKLKEEFGIEEIKITKIEFDKETKEITITMEITYKKKKNEKITITKKIKVEDLSA [r9_1002_TrROS_Hall]  2.08 ± 0.24 kcal/mol
26. SMTPEEEAKRKAEEEAEKLKEEIKKKLKEEGVPKNVTFKFERDIEITLTDENGNVIGTRKIKIKFTVPLPSA [r9_494_JUSTAS]  2.14 ± 0.29 kcal/mol
27. KPKIVEKKEITIKLNGKTIKITLVKNKETGKYYAKIEIFEYDKNGKLVKKETITLEFDSLEDLLEALKKLAS [r1_288_TrROS_Hall]  2.14 ± 0.091 kcal/mol
28. SAGGSAGGSAMPVIELTIKVKTKEEAKKAAEELAKKLEEEFGLKVEVEYDEETKEVKVKIYPSAGGSAGGSA [r18_368_TrROS_Hall]  2.25 ± 0.12 kcal/mol
29. SAGKIVIDKDNMKVYVTLPNGKKIELSLEELKKLLEELKKEGKPLTAEEIAEKLKKEFPGAEVEIVPVSAGG [r19_46_TrROS_Hall]  2.38 ± 0.086 kcal/mol
30. SAGGSAGGSAGLEVPEGYEVKILDVNPETLPNGERVVSMTVLIIDPDGNPRKVEFRFYAPSAGGSAGGSAGG [r11_570_TrMRF]  2.47 ± 0.17 kcal/mol
31. SAGGSAGGSSVTLTFTGGNSEVTVELDAGGEGGFLARVTVVTESDGKLETVEADFYLGSLPGLSAGGSAGGS [r12_769_TrMRF]  2.75 ± 0.13 kcal/mol
32. SAGGSADYYLIVIEIEKNGKKYKIVLVVSKEDLKKLEEEIKKKFPDVKIKIKVIKFPSKEEALKALSAGGSA [r15_889_TrROS_Hall]  2.97 ± 0.1 kcal/mol
33. SAGGSKKTIELVIKDKKTNKWLKITIEYDEETGEVTVTIYDKNGEVVKEIKMSKDELKKLLEKLGFSAGGSA [r2_115_TrROS_Hall]  3.02 ± 0.22 kcal/mol
34. SAGGSAGGSDYLMIWIPPDALKGMPPGQEIEFEIKFNGGEYKVKIKVMPHENGHYMIMITVEPSAGGSAGGS [r12_433_TrROS]  3.2 ± 0.35 kcal/mol
35. SAGGSAGGSAGGSMEFEVAEVFPDGWVVLRFPDGSRYRARLALDPETGEAKLLSLEPLPSAGGSAGGSAGGS [r4_247_TrMRF]  3.27 ± 0.077 kcal/mol
36. SAGGSAGGPSLRLTFPFPPGFSVTIELFPDGTARITIHNSDGSLLLSFSIPLPPVIPPDPSSLLSAGGSAGG [r6_238_TrMRF]  3.33 ± 0.17 kcal/mol
37. SAGGSAETIEIEIKVKTEEEREKLKEALKKIPSIKEVKELPDGTIKITVSKENLDKIKEALKKAGVSAGGSA [r15_834_TrROS_Hall]  3.37 ± 0.34 kcal/mol
38. SAGGSDDPAKDIDLDIPVVVLEEEEARELARELDKPIIFRLPDGRLRVFYPDGREEEFPLPKPEELSAGGSA [r2_34_TrMRF]  3.38 ± 0.066 kcal/mol
39. SAGGKYKVEIIDPKEGEKVFIEIDEETKKITIWNAKTGEKVAEFEIKDLKEGDTITLPNGFVIKIEKESAGG [r13_720_TrROS_Hall]  3.67 ± 0.14 kcal/mol
40. MKVIEVPIEGLPVEEIRRVIEEAIEKAKAEGNPDVKIIVTVPGPPELVEATTAVVKEIADKGDVEVSVVALS [r1_387_JUSTAS]  3.83 ± 0.36 kcal/mol
41. SAGGSMFKVEEVETLENGEVLAKLTVYLDGKPYPATARIYTLPDGRKVAEIYFPDNPNVSLRIPLTSAGGSA [r2_376_TrMRF]  3.91 ± 0.059 kcal/mol
42. SAGGSAGGSAEPEKKYNVKVTFYNPNTGELVLEAEFPNMTIDEVKELAKKLGLEIVKIEVGSAGGSAGGSAG [r3_423_TrMRF]  4.37 ± 0.27 kcal/mol

Test: folding stability dG unfold from chymotrypsin proteolysis; higher = more stable
Procedure, shortened: as §1

In order of rising “folding stability dG unfold” value:
1. SAGGMDPDDLKGMPPEQAKDIVRDWIREYMQERNPNMPPGMKITDVPVEVRDPDNGKEIEVKVEIENYSAGG [r13_555_TrROS]  -0.00917 ± 0.33 kcal/mol
2. SAGLEVEIVSVEYDEETNTVKVKVKVRNPETNEVTTLELTIKLPPPPPPVEKVEVKEVKDGKVTVTYEESAG [r5_150_TrROS_Hall]  0.394 ± 0.13 kcal/mol
3. SAGGSAGGGDAESYAKEKGFVEIKVTKLPDGSERVTAKYPDGTTADILYTPGQGTFTLLETKKESAGGSAGG [r6_906_JUSTAS]  0.407 ± 0.082 kcal/mol
4. SAGGSAGGSAGIEKTKDGVYKITIYNPSTGKKTEIYVPSSAPYVAGPVVLELVKNKAIIESAGGSAGGSAGG [r11_538_TrMRF]  0.802 ± 0.11 kcal/mol
5. SAGSMEELIANGGTISEERTLPGGEKVFTTTTLTYAPDGTPVINTETTVTTTPPDGTTTPSTSTSTVPLSAG [r5_24_JUSTAS]  0.957 ± 0.058 kcal/mol
6. SAGGMTITIDPTPDGVRIKIYDDGKPREIPVAPEVLELIQQNPTLEEIIRELFPPGHPIEKIEIEPWSAGGS [r16_567_TrROS]  1.03 ± 0.17 kcal/mol
7. SAGGSAGGSAGGSWTVTKEISREGDKVYISTVTTYVNPNGTPVTETETKEISPEEVAELESAGGSAGGSAGG [r11_690_JUSTAS]  1.11 ± 0.14 kcal/mol
8. SAGIPPDDPNDIYIVPVKITPVPDGSLQIEIIIVWPDGEVYTMEQEFDPNGNIEEMDMEPMPPEDIKESAGG [r19_285_TrROS]  1.31 ± 0.081 kcal/mol
9. SAGGSAGGSSPLLEAALEIAKTLPPDSEVELPILNPETGTFVRVRVVYDEETGEFKVESVEFSSAGGSAGGS [r12_186_TrMRF]  1.44 ± 0.12 kcal/mol
10. SMTPEEEAKRKAEEEAEKLKEEIKKKLKEEGVPKNVTFKFERDIEITLTDENGNVIGTRKIKIKFTVPLPSA [r9_494_JUSTAS]  1.79 ± 0.13 kcal/mol
11. SAGGSAGGSAMPVIELTIKVKTKEEAKKAAEELAKKLEEEFGLKVEVEYDEETKEVKVKIYPSAGGSAGGSA [r18_368_TrROS_Hall]  1.79 ± 0.068 kcal/mol
12. SAGGSAGGSAGLEVPEGYEVKILDVNPETLPNGERVVSMTVLIIDPDGNPRKVEFRFYAPSAGGSAGGSAGG [r11_570_TrMRF]  2.1 ± 0.063 kcal/mol
13. SAGGSAETIEIEIKVKTEEEREKLKEALKKIPSIKEVKELPDGTIKITVSKENLDKIKEALKKAGVSAGGSA [r15_834_TrROS_Hall]  2.25 ± 0.24 kcal/mol
14. SAGGSAWPAKEIAKELNPGFPVDVEPEPVPNKDGKDMVTIEARFPNGWKIQIVFRNGKPEAIQWQKSAGGSA [r15_417_TrROS]  2.28 ± 0.11 kcal/mol
15. SAGGSDDPAKDIDLDIPVVVLEEEEARELARELDKPIIFRLPDGRLRVFYPDGREEEFPLPKPEELSAGGSA [r2_34_TrMRF]  2.65 ± 0.022 kcal/mol
16. SAGGSADYYLIVIEIEKNGKKYKIVLVVSKEDLKKLEEEIKKKFPDVKIKIKVIKFPSKEEALKALSAGGSA [r15_889_TrROS_Hall]  3.74 ± 0.054 kcal/mol
17. SAGGSAGGSSVTLTFTGGNSEVTVELDAGGEGGFLARVTVVTESDGKLETVEADFYLGSLPGLSAGGSAGGS [r12_769_TrMRF]  3.77 ± 0.065 kcal/mol
18. SAGKIVIDKDNMKVYVTLPNGKKIELSLEELKKLLEELKKEGKPLTAEEIAEKLKKEFPGAEVEIVPVSAGG [r19_46_TrROS_Hall]  4.01 ± 0.064 kcal/mol
19. SAGGSMFKVEEVETLENGEVLAKLTVYLDGKPYPATARIYTLPDGRKVAEIYFPDNPNVSLRIPLTSAGGSA [r2_376_TrMRF]  4.14 ± 0.024 kcal/mol
20. SAGGSAGGSAGGSMEFEVAEVFPDGWVVLRFPDGSRYRARLALDPETGEAKLLSLEPLPSAGGSAGGSAGGS [r4_247_TrMRF]  4.41 ± 0.071 kcal/mol
21. SAGGSAGGSAEPEKKYNVKVTFYNPNTGELVLEAEFPNMTIDEVKELAKKLGLEIVKIEVGSAGGSAGGSAG [r3_423_TrMRF]  4.43 ± 0.061 kcal/mol
